We go through one molecule from US20240294572A1, “Antimicrobial Peptides” (priority 2021, published 2024).

Assay [1] concerns the target T1, apolipoprotein A-IV (mouse), P06728.
T1 chain: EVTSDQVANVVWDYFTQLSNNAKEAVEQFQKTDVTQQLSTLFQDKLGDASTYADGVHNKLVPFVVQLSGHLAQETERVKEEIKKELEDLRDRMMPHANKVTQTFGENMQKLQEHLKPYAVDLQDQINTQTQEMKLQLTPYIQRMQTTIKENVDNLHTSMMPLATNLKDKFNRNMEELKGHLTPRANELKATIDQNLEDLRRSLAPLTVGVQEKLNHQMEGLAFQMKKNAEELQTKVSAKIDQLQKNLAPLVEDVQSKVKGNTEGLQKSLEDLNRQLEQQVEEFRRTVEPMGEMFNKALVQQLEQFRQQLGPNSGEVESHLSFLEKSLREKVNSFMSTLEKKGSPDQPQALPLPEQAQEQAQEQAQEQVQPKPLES
In words: peptide on Dynabeads, 5% mouse plasma, LC-MS/MS.

In assay [2] the target is T2, apolipoprotein C-I (mouse), P34928.
T2 chain: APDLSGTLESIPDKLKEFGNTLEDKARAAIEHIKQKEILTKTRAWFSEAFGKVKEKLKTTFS
Briefly: peptide on Dynabeads, 5% mouse plasma, LC-MS/MS.

In assay [3] the target is serum albumin (mouse), P07724. In words: peptide on Dynabeads, 5% mouse plasma, LC-MS/MS.
Assay [4] addresses T3, apolipoprotein A-I (mouse), Q00623.
T3 chain: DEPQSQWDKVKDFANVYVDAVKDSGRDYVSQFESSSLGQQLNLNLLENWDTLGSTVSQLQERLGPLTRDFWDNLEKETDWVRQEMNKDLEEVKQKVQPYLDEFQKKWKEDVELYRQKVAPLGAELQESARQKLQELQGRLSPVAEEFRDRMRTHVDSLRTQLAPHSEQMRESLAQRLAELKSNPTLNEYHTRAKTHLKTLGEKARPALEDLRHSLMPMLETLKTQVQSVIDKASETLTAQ
In words: peptide on Dynabeads, 5% mouse plasma, LC-MS/MS.

Assay [5] concerns the target T1, apolipoprotein A-IV (mouse), P06728. In words: ratio of MS intensity on L-form beads to that on D-form (C10-KR8d) beads.
Assay [6] addresses T2, apolipoprotein C-I (mouse), P34928. The description is as above.
Assay [7] deals with serum albumin (mouse), P07724. Described as above.
In assay [8] the target is T3, apolipoprotein A-I (mouse), Q00623. Described as above.

Chain of serum albumin (mouse), P07724 (P07724 25-608 limits assumed): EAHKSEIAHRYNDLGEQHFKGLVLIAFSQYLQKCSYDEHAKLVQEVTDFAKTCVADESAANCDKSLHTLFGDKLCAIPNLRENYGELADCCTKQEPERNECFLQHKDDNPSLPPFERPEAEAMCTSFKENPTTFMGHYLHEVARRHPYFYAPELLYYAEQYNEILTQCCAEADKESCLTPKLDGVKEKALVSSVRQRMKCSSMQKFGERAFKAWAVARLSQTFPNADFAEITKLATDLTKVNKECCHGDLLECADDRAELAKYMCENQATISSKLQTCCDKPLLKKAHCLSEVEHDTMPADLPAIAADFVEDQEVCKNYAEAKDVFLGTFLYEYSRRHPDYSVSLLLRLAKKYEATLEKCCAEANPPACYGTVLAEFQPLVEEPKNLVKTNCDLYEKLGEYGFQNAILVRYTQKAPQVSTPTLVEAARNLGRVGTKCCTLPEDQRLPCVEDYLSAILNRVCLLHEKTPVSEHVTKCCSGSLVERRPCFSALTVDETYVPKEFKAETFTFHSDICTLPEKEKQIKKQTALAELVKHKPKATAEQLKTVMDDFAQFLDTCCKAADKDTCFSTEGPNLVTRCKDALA

Take CKRIWQRIK (modifications not checked): the intensity (mass spectrometry) was 3.21e+08 in assay [1], 4.35e+08 in assay [2], 3.72e+10 in assay [3] and 4.29e+09 in assay [4]. The L/D Ratio was 2.89 in assay [5], 2.08 in assay [6], 2.28 in assay [7] and 3.54 in assay [8].
